Measurements reported in publication PMC11127761.

Key:
Assay in all cases: electrochemical aptasensor (IPA 500 Hz, flow cell)
Conditions in all cases: 1-1000 pg/mL; NPY signal about 10x higher; 5' thiol C6 (disulfide reduced), 3' amino linker; aCSF pH 7.4 (composition by citation); SWV -0.4 to 0.0 V, 30 Hz; IPA 500 Hz in flow cell; assay temperature not stated
Somatostatin (SOM) = biological target: T1, Somatostatin (SOM) (UniProt P61278)
T1 sequence: AGCKNFFWKTFTSC

Peptide YY (PYY) = Peptide YY (PYY) (UniProt P10082)
Chain of Peptide YY (PYY) (P10082 29-64): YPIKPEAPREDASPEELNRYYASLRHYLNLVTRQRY

[1] = biological target: T2, Pancreatic polypeptide (PP) (UniProt P01298)
T2 sequence: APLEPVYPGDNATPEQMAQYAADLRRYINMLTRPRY

Measured: binding signal (fraction of NPY signal)

AGCAGCACAGAGGTCAGATGCAAACCACAGCCTGAGTGGTTAGCGTATGTCATTTACGGACCTATGCGTGCTACCGTGAA [Aptamer 4.31]
0.1: all assays above
